Positions count from the first letter of the chain named.
Experiments:
Conditions in all cases: EMSA: 10 mM Tris-HCl pH 7.5, 1 mM EDTA, 50 mM NaCl, 5% glycerol, 30 min room temperature, 10 pmol DNA, 0-18 ug protein, 5% native PAGE at 4 °C; BLI: PBS pH …
[1] = tested on: T1, SigB(Q225P) Q224P (Staphylococcus aureus (strain of the cloned gene not stated; XQW or Newman-SigB(Q225P)?)), ORF:92324cdd; assay: EMSA
T1 sequence: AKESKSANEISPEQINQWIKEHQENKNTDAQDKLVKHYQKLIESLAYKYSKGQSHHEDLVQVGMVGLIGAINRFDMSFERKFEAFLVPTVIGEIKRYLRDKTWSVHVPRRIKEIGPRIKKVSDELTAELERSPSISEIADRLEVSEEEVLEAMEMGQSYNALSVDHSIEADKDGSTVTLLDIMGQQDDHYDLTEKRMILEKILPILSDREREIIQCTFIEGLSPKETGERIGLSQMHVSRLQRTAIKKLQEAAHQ

[2] = tested on: T2, SigB (Staphylococcus aureus (strain of the cloned gene not stated; Newman or XQ?)), ORF:92324cdd; assay: EMSA
T2 sequence: T1 sequence with P224Q

[3] = tested on: SigB (Staphylococcus aureus (strain of the cloned gene not stated; Newman or XQ?)); assay: BLI
[4] = tested on: SigB(Q225P) (Staphylococcus aureus (strain of the cloned gene not stated; XQW or Newman-SigB(Q225P)?)); assay: BLI

Substance	binding [1]	binding [2]	Kd [3] [nM]	Kd [4] [nM]
ACGCATAGGGACTTCGTGACCATTTACAGTCACAACTTTACTTAAGTTAATAAGTGTTAATTCATCAAACGACAGTTGTTCAACTGGTTGATGATGGTATTTCTTCATTCTTGTAAGTAAATTATTAATACGTAAAACGAGTTCCCTTGGACTAAATGGTTTTTTGACATAGTCATCTGCACCTAAAGTTAAGGCG (double strand) [saeR coding region fragment]	no binding	no binding		
biotin-labeled nuc promoter (BLI)			113	273
